From patent US20250361274A1, “PEPTIDE AND PEPTIDE-CONTAINING AGENT” (PEPTIDREAM INC., priority 2022, published 2025)
Numbered stars: 1 amine (or outer) side, 2 acyl side, 3 side chain; on linkers, the order of the positions; unused ones are H or OH. Bridge positions count the residues as written; N and C are the ends. Square brackets hold non-standard residues; d marks the D form. Ends that are not written are not given here. * marks the point of attachment. MeKCOpipzaa = N6-(4-(carboxymethyl)piperazine-1-carbonyl)-N2-methyl-L-lysine, CN([C@@H](CCCCNC(=O)N1CCN(CC(=O)[*:3])CC1)C(=O)[*:2])[*:1]; KCOpipzaa = N6-(4-(carboxymethyl)piperazine-1-carbonyl)-L-lysine, O=C(NCCCC[C@H](N[*:1])C(=O)[*:2])N1CCN(CC(=O)[*:3])CC1; Bph3C = (S)-2-amino-3-(3'-chloro-[1,1'-biphenyl]-4-yl)propanoic acid, O=C([C@H](Cc1ccc(-c2cccc(Cl)c2)cc1)N[*:1])[*:2]; X8 = 4‑(carboxymethyl)piperazine‑1‑carbonyl, O=C(O)CN1CCN(C(=O)*)CC1; Ala(2-NH2-4-pyridyl) = Nc1cc(C[C@H](N)C(=O)O)ccn1; 3Pal(6-Ph) = N[C@@H](Cc1ccc(-c2ccccc2)nc1)C(=O)O; Phe(4-COOH) = N[C@@H](Cc1ccc(C(=O)O)cc1)C(=O)O; NMePhe(3-Me) = CN[C@@H](Cc1cccc(C)c1)C(=O)O; NMePhe(4-Me) = CN[C@@H](Cc1ccc(C)cc1)C(=O)O; Bip = N[C@@H](Cc1ccc(-c2ccccc2)cc1)C(=O)O; 3Pal(6-NH2) = Nc1ccc(C[C@H](N)C(=O)O)cn1; Phe(3-Cl) = N[C@@H](Cc1cccc(Cl)c1)C(=O)O; Phe(4-Cl) = N[C@@H](Cc1ccc(Cl)cc1)C(=O)O; Phe(4-F) = N[C@@H](Cc1ccc(F)cc1)C(=O)O; Hyp = O=C(O)[C@@H]1C[C@@H](O)CN1; NMeF = CN[C@@H](Cc1ccccc1)C(=O)O; 4Pal = N[C@@H](Cc1ccncc1)C(=O)O; Cha = N[C@@H](CC1CCCCC1)C(=O)O; Cba = N[C@@H](CC1CCC1)C(=O)O; Abu = CC[C@H](N)C(=O)O; βAla = NCCC(=O)O

Key:
BMP7 = target: T1, BMP7 (Homo sapiens, UniProt P18075); assay: BMP7 signal transduction inhibitory activity: SMAD1 phosphorylation by BMP7 stimulus, A549 cells; assay type: cell-based; conditions: for aLISA BMP7: inhibition of SMAD1 phosphorylation by BMP7 stimulus, A549 cells
T1 sequence (P18075 293-431): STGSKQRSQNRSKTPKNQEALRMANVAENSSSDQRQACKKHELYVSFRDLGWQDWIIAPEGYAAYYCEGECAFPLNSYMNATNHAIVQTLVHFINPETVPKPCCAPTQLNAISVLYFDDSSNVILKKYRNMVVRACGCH
Summary of the method: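 SMAD1 phosphorylation readout in A549 cells stimulated with BMP7 (10 nM). Peptides were tested at three levels (e.g. 1/10/100, 10/100/1,000, 100/300/1,000, 10/30/90 nM) or at eight points, 1/3 steps, from 100 or 1,000 nM. Recombinant Noggin served as positive control at matching concentrations.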

BMP4 = target: T2, BMP4 (Homo sapiens, UniProt P12644); assay: BMP4 signal transduction inhibitory activity: SMAD1 phosphorylation by BMP4 stimulus, AlphaLISA SureFire, A549 cells; assay type: cell-based; conditions: for aLISA BMP4: inhibition of SMAD1 phosphorylation by BMP4 stimulus, A549 cells
T2 sequence (P12644 293-408): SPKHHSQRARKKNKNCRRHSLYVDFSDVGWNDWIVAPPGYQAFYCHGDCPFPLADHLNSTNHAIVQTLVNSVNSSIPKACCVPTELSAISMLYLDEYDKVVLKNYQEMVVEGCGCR

[1] = peptides of Synthesis 1, classes E, F, ND
[2] = peptides of Synthesis 1, classes D-F, ND
[3] = BMP7 10 nM stimulus, peptide conc. in assay 10, 30, 90 nM
[4] = BMP4 0.2 nM stimulus, peptide conc. in assay 2, 20, 200 nM
[5] = BMP7 10 nM stimulus, peptide conc. in assay 1, 10, 100 nM
[6] = BMP4 0.2 nM stimulus, peptide conc. in assay 0.2, 2, 20 nM
[7] = SMAD1 phosphorylation, BMP7 10 nM, peptide conc. in assay 1, 10, 100 nM
[8] = SMAD1 phosphorylation, BMP4 0.2 nM, peptide conc. in assay 0.2, 2, 20 nM
[9] = AlphaLISA, class by peptide concentration zone

Substance: 132 ({CH2CO}-ERVYVSR[Bip]PYV[Bip]Y[Phe(4-COOH)][Phe(4-COOH)]SCG-NH2; thioether N-17; not fully specified) [compound 132]
- aLISA BMP7 (BMP7; [1]): ND (the inhibitory activity was less than 30% at the maximum concentration evaluated)
- aLISA BMP4 (BMP4; [2]): E (showed less than 50% of inhibitory activity in 0.2 nM-addition zone and showed 50% or more of inhibitory activity in 2 nM-addition zone)

Substance: 150 ({CH2CO}-ERVYVDR[Bip]PYV[Bip]Y[Phe(4-COOH)][3Pal(6-NH2)]SCG-NH2; thioether N-17; not fully specified) [compound 150]
- aLISA BMP7 (BMP7; [1]): E (showed 50% or more of inhibitory activity in a zone to which the peptide was added in an amount of 10 nM)
- aLISA BMP4 (BMP4; [2]): E (showed less than 50% of inhibitory activity in 0.2 nM-addition zone and showed 50% or more of inhibitory activity in 2 nM-addition zone)

Substance: 314 (ERV[Phe(4-COOH)][Cba][KCOpipzaa]R[3Pal(6-Ph)][KCOpipzaa]Y[Hyp][Bph3C]Y[Phe(4-COOH)][Phe(4-COOH)]SCG-NH2; not fully specified) [compound 314]
- aLIZA BMP7 (10 nM) % inh (BMP7; BMP7 10 nM, peptide 10, 100, 1000 nM, Table 6): E (showed less than 30% of inhibitory activity in 100 nM-addition zone and showed 30% or more of inhibitory activity in 1,000 nM-addition zone)
- aLIZA BMP4 (0.2 nM) % inh (BMP4; BMP4 0.2 nM, peptide 0.02, 0.2, 2 nM, Table 6): B (showed less than 30% of inhibitory activity in 0.02 nM-addition zone and showed 30% or more of inhibitory activity in 0.2 nM-addition zone)

Substance: 380 (FG[NMeF]G[Phe(4-Cl)]GDD[Cha]A[NMeF]LHCG-NH2; not fully specified) [compound 380]
- aLISA BMP7 (10 nM) % inh (BMP7; [3]): F (showed less than 30% of inhibitory activity in 10 nM-addition zone and showed 30% or more of inhibitory activity in 30 nM-addition zone)
- aLISA BMP4 (0.2 nM) % inh (BMP4; [4]): B (showed less than 30% of inhibitory activity in 20 nM-addition zone and showed 30% or more of inhibitory activity in 200 nM-addition zone)

Substance: 392 ([Phe(4-F)]G[NMeF]G[Bip]GDD[Cha]A[NMeF]LHCG-NH2; not fully specified) [compound 392]
- aLISA BMP7 (10 nM) % inh (BMP7; [5]): D (showed less than 30% of inhibitory activity in 10 nM-addition zone and showed 30% or more of inhibitory activity in 100 nM-addition zone)
- aLISA BMP4 (0.2 nM) % inh (BMP4; [6]): A (showed less than 30% of inhibitory activity in 2 nM-peptide-addition zone and showed 30% or more of inhibitory activity in 20 nM-addition zone)

Substance: 81 ({CH2CO}-E[KCOpipzaa]VYVDR[Bip][MeKCOpipzaa]YP[Bip][Phe(4-F)][Phe(4-COOH)][4Pal]SCG-NH2; thioether N-17; not fully specified) [compound 81]
- aLISA BMP7 (BMP7; peptides of Synthesis 2, classes A-D, ND): C (showed less than 50% of inhibitory activity in 10 nM-addition zone and showed 50% or more of inhibitory activity in 100 nM-addition zone)
- aLISA BMP4 (BMP4; peptides of Synthesis 2, classes A-C, ND): A (showed an inhibitory activity of 50% or more in a zone to which the peptide was added to in an amount of 0.2 nM)

Substance: 352 (FG[NMeF]G[Bip]GDD[Cha]A[NMeF]LGCG-NH2; not fully specified (N-terminus, bridges); also: cyclic peptide, ring closure not given here) [compound 352]
- aLISA BMP7 (10 nM) % inh (BMP7; [7]): D (showed less than 30% of inhibitory activity in 10 nM-addition zone and showed 30% or more of inhibitory activity in 100 nM-addition zone)
- aLISA BMP4 (0.2 nM) % inh (BMP4; [8]): ND (the inhibitory activity was less than 30% at the maximum concentration evaluated)

Substance: 252 (LRVYVDR[3Pal(6-Ph)]SYV[Bip][4Pal][Phe(4-COOH)][Phe(4-COOH)]SCG-NH2; not fully specified) [compound 252]
- aLIZA BMP7 (10 nM) % Inh (BMP7; SMAD1 phosphorylation by BMP7 stimulus, peptide conc. in assay 10, 100, 1000 nM, class symbols): ND (the inhibitory activity was less than 30% at the maximum concentration evaluated)
- aLIZA BMP4 (0.2 nM) % Inh (BMP4; SMAD1 phosphorylation by BMP4 stimulus, peptide conc. in assay 0.02, 0.2, 2 nM, class symbols): C (showed less than 30% of inhibitory activity in 0.2 nM-addition zone and showed 30% or more of inhibitory activity in 2 nM-addition zone)

Substance: 386 (FG[NMePhe(3-Me)]G[Bip]GDD[Cha]A[NMeF]LHCG-NH2; not fully specified) [compound 386]
- aLISA BMP7 (10 nM) % inh (BMP7; [3]): F (showed less than 30% of inhibitory activity in 10 nM-addition zone and showed 30% or more of inhibitory activity in 30 nM-addition zone)
- aLISA BMP4 (0.2 nM) % inh (BMP4; [4]): B (showed less than 30% of inhibitory activity in 20 nM-addition zone and showed 30% or more of inhibitory activity in 200 nM-addition zone)

Substance: 353 (FG[NMeF]G[Bip]GDD[Cha]A[NMeF]LSCG-NH2; not fully specified (N-terminus, bridges); also: cyclic peptide, ring closure not given here) [compound 353]
- aLISA BMP7 (10 nM) % inh (BMP7; [7]): D (showed less than 30% of inhibitory activity in 10 nM-addition zone and showed 30% or more of inhibitory activity in 100 nM-addition zone)
- aLISA BMP4 (0.2 nM) % inh (BMP4; [8]): ND (the inhibitory activity was less than 30% at the maximum concentration evaluated)

Substance: 359 (FG[NMeF]G[Bip]GDE[Cha]A[NMeF]L[Abu]CG-NH2; not fully specified (N-terminus, bridges)) [compound 359]
- aLISA BMP7 (10 nM) % inh (BMP7; [7]): D (showed less than 30% of inhibitory activity in 10 nM-addition zone and showed 30% or more of inhibitory activity in 100 nM-addition zone)
- aLISA BMP4 (0.2 nM) % inh (BMP4; [8]): ND (the inhibitory activity was less than 30% at the maximum concentration evaluated)

Substance: 57 (Ac-ARVYVDK(X8)[Bip]PYP[Bip]Y[Phe(4-COOH)][Phe(4-COOH)]SCG-NH2; thioether (positions not given here); not fully specified (bridges)) [compound 57]
- aLISA BMP7 (BMP7; [9]): C (showed less than 50% of inhibitory activity in 10 nM-addition zone and showed 50% or more of inhibitory activity in 100 nM-addition zone)
- aLISA BMP4 (BMP4; [9]): C (showed an inhibitory activity of less than 50% in 0.2 nM-addition zone and showed an inhibitory activity of 50% or more in 2 nM-addition zone were defined as B or C)

Substance: 351 (FG[NMeF]G[Bip]GDD[Cha]A[NMeF]L[Ala(2-NH2-4-pyridyl)]CG-NH2; not fully specified (N-terminus, bridges); also: cyclic peptide, ring closure not given here) [compound 351]
- aLISA BMP7 (10 nM) % inh (BMP7; [7]): D (showed less than 30% of inhibitory activity in 10 nM-addition zone and showed 30% or more of inhibitory activity in 100 nM-addition zone)
- aLISA BMP4 (0.2 nM) % inh (BMP4; [8]): ND (the inhibitory activity was less than 30% at the maximum concentration evaluated)

Substance: 379 (FG[NMeF]G[Phe(3-Cl)]GDD[Cha]A[NMeF]LHCG-NH2; not fully specified) [compound 379]
- aLISA BMP7 (10 nM) % inh (BMP7; [3]): G (showed less than 30% of inhibitory activity in 30 nM-addition zone and showed 30% or more of inhibitory activity in 90 nM-addition zone)
- aLISA BMP4 (0.2 nM) % inh (BMP4; [4]): ND (the inhibitory activity was less than 30% at the maximum concentration evaluated)

Substance: 395 ([Phe(4-F)]G[NMePhe(4-Me)]G[Bip]GDD[Cha]A[NMeF]LHCG-NH2; not fully specified) [compound 395]
- aLISA BMP7 (10 nM) % inh (BMP7; [5]): D (showed less than 30% of inhibitory activity in 10 nM-addition zone and showed 30% or more of inhibitory activity in 100 nM-addition zone)
- aLISA BMP4 (0.2 nM) % inh (BMP4; [6]): A (showed less than 30% of inhibitory activity in 2 nM-peptide-addition zone and showed 30% or more of inhibitory activity in 20 nM-addition zone)

Substance: 406 (FG[NMeF]G[Bip]GDE[Cha]Q[NMeF]L[Phe(4-COOH)]C[βAla]) [compound 406]
- aLISA BMP7 (10 nM) % inh (BMP7; [5]): D (showed less than 30% of inhibitory activity in 10 nM-addition zone and showed 30% or more of inhibitory activity in 100 nM-addition zone)
- aLISA BMP4 (0.2 nM) % inh (BMP4; [6]): ND (the inhibitory activity was less than 30% at the maximum concentration evaluated)

Substance: 339 (FG[NMeF]G[Bip]GDD[Cha][Abu][NMeF]LHCG-NH2; not fully specified (N-terminus, bridges)) [compound 339]
- aLISA BMP7 (10 nM) % inh (BMP7; [7]): D (showed less than 30% of inhibitory activity in 10 nM-addition zone and showed 30% or more of inhibitory activity in 100 nM-addition zone)
- aLISA BMP4 (0.2 nM) % inh (BMP4; [8]): ND (the inhibitory activity was less than 30% at the maximum concentration evaluated)
